Data: paper PMC4832192

Target: response regulator PhoP of Mycobacterium tuberculosis (M. tuberculosis) (UniProt P71814)
Assay: crystal structure

“response regulator PhoP of Mycobacterium tuberculosis (from UniProt P71814 1-247) (natural protein)” showed a stoichiometry N of 2.
